In test [1] the target is actin (rabbit fast twitch skeletal muscle), reconstituted as actin filament in gelsolin-extracted bovine myocardium (rabbit) (UniProt P68135).
For test [2] the target is unchanged. This is another data set of the same source.

“myosin of bovine myocardium (thick filament, cross-bridges) (from UniProt Q9BE39 1-1935) (complex)”: in test [1], the Stiffness at pCa 7 (25°C), fibres reconstituted with acetyl Tm (from bovine myocardium) and Tn was found to be 0.038 T ac; the Stiffness at pCa 7 (25°C), fibres reconstituted with nfTm and Tn turned out to be 0.044 T ac; the Stiffness at pCa 7 (25°C), fibres reconstituted with ∆2Tm and Tn was determined as 0.039 T ac; the Stiffness at pCa 7 (25°C), fibres reconstituted with ∆3Tm and Tn came to 0.04 T ac. Also, in test [1], the Tension at pCa 7 (25°C), fibres reconstituted with acetyl Tm (from bovine myocardium) and Tn was 0.168 T ac; the Tension at pCa 7 (25°C), fibres reconstituted with nfTm and Tn turned out to be 0.065 T ac; the Tension at pCa 7 (25°C), fibres reconstituted with ∆2Tm and Tn was found to be 0.109 T ac; the Tension at pCa 7 (25°C), fibres reconstituted with ∆3Tm and Tn amounted to 0.196 T ac. Also, in test [2], the Rigor stiffness (100 Hz, 25°C), fibres reconstituted with nfTm and Tn amounted to 166 T ac; the Rigor stiffness (100 Hz, 25°C), fibres reconstituted with ∆2Tm and Tn amounted to 201 T ac; the Rigor stiffness (100 Hz, 25°C), fibres reconstituted with ∆3Tm and Tn is 249 T ac; the Tension (T m), steady-state active tension in the standard activating solution at 25°C, fibres reconstituted with nfTm and Tn was 1.51 T ac. In test [2], this substance showed a Tension (T m), steady-state active tension in the standard activating solution at 25°C, fibres reconstituted with ∆2Tm and Tn of 1.65 T ac; a Tension (T m), steady-state active tension in the standard activating solution at 25°C, fibres reconstituted with ∆3Tm and Tn of 0.91 T ac.

The values above are taken from paper PMC2814127.
